Results on 38 variants are retold here after the RNAGym collection of RNA variant scans (doi:10.7554/elife.80360).

The labels stand for the following.
B1: Hairpin Ribozyme (parent)
chain: GUCCUCUUUCACGUGCGCGUGAAAGAGAGAAGUGAACCAGAGAAACACACGUUGUGGUAUAUUACCUGGUA

The variants in this data set derive from B1. Put plainly: self-cleavage, relative activity (ratio to wild type); higher = more cleavage; co-transcriptional.
For the variant GUCCUCUUUCACGUGCGCGUGAAAGAUAGAAGUGAACCAGAGAAACACACGUAGUGGUAUAUUACCUGGUA [G27U U53A], the self-cleavage was 0.111.

As to GUCCUCUUUCACGUGCGCGUGAAAGAUAGAAGUGAACCAGAGAAACACACGUCGUGGUAUAUUACCUGGUA [G27U U53C], the self-cleavage is 0.398. For the variant GUCCUCUUUCACGUGCGCGUGAAAGACAGAAGUGAACCAGAGAAACACACGUUGUGGUAUAUUACGUGGUA [G27C C66G], the self-cleavage is 0.156. With GUCCUCUUUCACGUGCGCGUGAAAGAUAGAAGUGAACCAGCGAAACACACGUUGUGGUAUAUUACCUGGUA [G27U A41C], the self-cleavage stood at 0.423. As for GUCCUCUUUCACGUGCGCGUGAAAGAUAGAAGUGAACCAGAGAAACCCACGUUGUGGUAUAUUACCUGGUA [G27U A47C], the figure is 0.157; as for GUCCUCUUUCACGUGCGCGUGAAAGAUAGAAGUGAACCAGAGAAACGCACGUUGUGGUAUAUUACCUGGUA [G27U A47G], 0.222. Take GUCCUCUUUCACGUGCGCGUGAAAGACAGAAGUGAACCAGAGAAACACACGUUGUGGUAUAUUACCUGGGA [G27C U70G]: the self-cleavage turned out to be 0.122.

Consider GUCCUCUUUCACGUGCGCGUGAAAGAUAGAAGUGAACCAGAGAAACACACGUUGUGGUACAUUACCUGGUA [G27U U60C], for which the self-cleavage turned out to be 0.383. Take GUCCUCUUUCACGUGCGCGUGAAAGACAGAAGUGAACCAGAGAAACAAACGUUGUGGUAUAUUACCUGGUA [G27C C48A]: the self-cleavage was found to be 0.0978.

On to GUCCUCUUUCACGUGCGCGUGAAAGACAGAAGUGAACCAGAGAAACAGACGUUGUGGUAUAUUACCUGGUA [G27C C48G], for which the self-cleavage came out at 0.164. With GUCCUCUUUCACGUGCGCGUGAAAGACAGAAGUGAACCAGAGAAACACACGUUGUGGUAUAUUACCUGUUA [G27C G69U], the self-cleavage came to 0.162.

With GUCCUCUUUCACGUGCGCGUGAAAGAUAGAAGUGAACCAGAGAAACACACGUUGUGGUAUAUUACCUUGUA [G27U G68U], the self-cleavage was 0.157.

On to GUCCUCUUUCACGUGCGCGUGAAAGAUAGAAGUGAACCAGAGAAACACACGUUGUGGUAUAUUACCUCGUA [G27U G68C], for which the self-cleavage turned out to be 0.102. Turning to GUCCUCUUUCACGUGCGCGUGAAAGAUAGAAGUGAACCAGAGAAACAAACGUUGUGGUAUAUUACCUGGUA [G27U C48A], the self-cleavage is 0.0902.

Consider GUCCUCUUUCACGUGCGCGUGAAAGACAGAAGUGAACCAGAUAAACACACGUUGUGGUAUAUUACCUGGUA [G27C G42U], for which the self-cleavage was 0.172. As for GUCCUCUUUCACGUGCGCGUGAAAGACAGAAGUGAACCAGAGAAACACACGUUGUGGUAGAUUACCUGGUA [G27C U60G], the self-cleavage stood at 0.0405. With GUCCUCUUUCACGUGCGCGUGAAAGAUAGAAGUGAACCAGAGAAACACACGAUGUGGUAUAUUACCUGGUA [G27U U52A] the figure was 0.354. GUCCUCUUUCACGUGCGCGUGAAAGAUAGAAGUGAACCAGAGAAACACACGUUGUGGUAUAUAACCUGGUA [G27U U63A]: the self-cleavage worked out at 0.0592.

Turning to GUCCUCUUUCACGUGCGCGUGAAAGAUAGAGGUGAACCAGAGAAACACACGUUGUGGUAUAUUACCUGGUA [G27U A31G], the self-cleavage was determined as 0.164. In the case of GUCCUCUUUCACGUGCGCGUGAAAGACAGAAGUGAACCAGAGAAACACACGUUGUGGUAUAUUCCCUGGUA [G27C A64C], the self-cleavage turned out to be 0.128. For the variant GUCCUCUUUCACGUGCGCGUGAAAGACAGAAGUGAACCAGAGAAACACACGUUGUGGUAUAUUUCCUGGUA [G27C A64U], the self-cleavage was determined as 0.184. For GUCCUCUUUCACGUGCGCGUGAAAGACAGAAGUGAACCAGAGAAACACACGUUGUGGUGUAUUACCUGGUA [G27C A59G], the self-cleavage was determined as 0.0478. As to GUCCUCUUUCACGUGCGCGUGAAAGACACAAGUGAACCAGAGAAACACACGUUGUGGUAUAUUACCUGGUA [G27C G29C], the self-cleavage is 0.163.

Regarding GUCCUCUUUCACGUGCGCGUGAAAGACAGAAGUGAACCAGAGAAACACACGUUGUGGUAUAUUACCUUGUA [G27C G68U], the self-cleavage was determined as 0.147.

For GUCCUCUUUCACGUGCGCGUGAAAGAUAGAAGUGAACCAGACAAACACACGUUGUGGUAUAUUACCUGGUA [G27U G42C], the self-cleavage came to 0.0625. With GUCCUCUUUCACGUGCGCGUGAAAGAUAGAAGUGAACCAGAAAAACACACGUUGUGGUAUAUUACCUGGUA [G27U G42A] the figure was 0.149; with GUCCUCUUUCACGUGCGCGUGAAAGACAGAAGUGAACCAGAGAAACACACCUUGUGGUAUAUUACCUGGUA [G27C G51C], 0.135; with GUCCUCUUUCACGUGCGCGUGAAAGACAGAAGUGAACCAGAGAAACACACUUUGUGGUAUAUUACCUGGUA [G27C G51U], 0.17. For the variant GUCCUCUUUCACGUGCGCGUGAAAGAUAGAAGUGAACCAGAGAAACACACGUUGUGGUAUAUUAACUGGUA [G27U C65A], the self-cleavage is 0.184. As for GUCCUCUUUCACGUGCGCGUGAAAGACAGAAGUGAACCAGAGAAACACACGUUGUGGUAUACUACCUGGUA [G27C U62C], the figure is 0.12. With GUCCUCUUUCACGUGCGCGUGAAAGACAGAAGUGAACCAGAGAAACACACGUUGUGGUAUAGUACCUGGUA [G27C U62G], the self-cleavage was 0.161. Consider GUCCUCUUUCACGUGCGCGUGAAAGACAGAAGUGAACCAGAGAAACACACGUUGUGGUAUAUUACCAGGUA [G27C U67A], for which the self-cleavage is 0.104. For GUCCUCUUUCACGUGCGCGUGAAAGACAGAACUGAACCAGAGAAACACACGUUGUGGUAUAUUACCUGGUA [G27C G32C], the self-cleavage was 0.13. Consider GUCCUCUUUCACGUGCGCGUGAAAGACAGAAAUGAACCAGAGAAACACACGUUGUGGUAUAUUACCUGGUA [G27C G32A], for which the self-cleavage came out at 0.191. With GUCCUCUUUCACGUGCGCGUGAAAGAUAGAAGUGAACCAGAGAAACACACGUUGUGGUAUCUUACCUGGUA [G27U A61C] the figure was 0.149; with GUCCUCUUUCACGUGCGCGUGAAAGAUAGAAGUGAACCAGAGAAACACACGUUGUAGUAUAUUACCUGGUA [G27U G56A], 0.0845; with GUCCUCUUUCACGUGCGCGUGAAAGAUAGAAGUGAACCAGAGAAACACACGUUGUUGUAUAUUACCUGGUA [G27U G56U], 0.108. Regarding GUCCUCUUUCACGUGCGCGUGAAAGACAGAAGUGAACCAGAGAAACACACGUUGUGGUAUAUUAGCUGGUA [G27C C65G], the self-cleavage was 0.152.
